Measurements: IntAct's records for PubMed 39009827

Columns and labels:
[1] = target: src_human SRC (UniProt P12931)
[2] = target: ima3_human KPNA4 (UniProt O00629)
[3] = target: ima3_human KPNA4 (UniProt O00629); remark: listed apart in the source
[4] = target: oxsr1_human OXSR1 (UniProt O95747)
[5] = target: G3BP2 (UniProt Q9UN86)
[6] = target: terf1_human TERF1 (UniProt P54274)
[7] = target: eps15_human EPS15 (UniProt P42566)
Chain of eps15_human EPS15 (P42566 whole entry): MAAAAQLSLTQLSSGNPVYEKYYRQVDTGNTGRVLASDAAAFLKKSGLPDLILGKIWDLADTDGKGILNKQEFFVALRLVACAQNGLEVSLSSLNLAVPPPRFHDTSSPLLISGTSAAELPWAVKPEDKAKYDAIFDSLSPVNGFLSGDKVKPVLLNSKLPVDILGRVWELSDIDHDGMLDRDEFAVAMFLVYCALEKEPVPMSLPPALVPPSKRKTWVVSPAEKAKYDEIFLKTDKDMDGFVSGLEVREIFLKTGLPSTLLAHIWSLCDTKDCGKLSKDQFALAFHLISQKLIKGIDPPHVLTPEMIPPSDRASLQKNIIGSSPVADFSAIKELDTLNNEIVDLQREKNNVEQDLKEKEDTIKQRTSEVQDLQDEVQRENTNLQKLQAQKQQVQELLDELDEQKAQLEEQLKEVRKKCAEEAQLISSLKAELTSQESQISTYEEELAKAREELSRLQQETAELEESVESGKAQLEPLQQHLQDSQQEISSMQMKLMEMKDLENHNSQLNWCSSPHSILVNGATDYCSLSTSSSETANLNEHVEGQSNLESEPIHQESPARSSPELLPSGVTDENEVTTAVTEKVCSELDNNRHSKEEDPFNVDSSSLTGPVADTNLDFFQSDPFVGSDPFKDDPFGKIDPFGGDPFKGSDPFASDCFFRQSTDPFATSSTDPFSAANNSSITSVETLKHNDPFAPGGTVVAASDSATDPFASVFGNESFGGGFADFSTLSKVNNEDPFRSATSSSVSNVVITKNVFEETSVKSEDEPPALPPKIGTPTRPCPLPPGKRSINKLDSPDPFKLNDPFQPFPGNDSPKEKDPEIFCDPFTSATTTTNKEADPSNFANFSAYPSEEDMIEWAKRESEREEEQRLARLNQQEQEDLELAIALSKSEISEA

Chain of oxsr1_human OXSR1 (O95747 whole entry, looked up): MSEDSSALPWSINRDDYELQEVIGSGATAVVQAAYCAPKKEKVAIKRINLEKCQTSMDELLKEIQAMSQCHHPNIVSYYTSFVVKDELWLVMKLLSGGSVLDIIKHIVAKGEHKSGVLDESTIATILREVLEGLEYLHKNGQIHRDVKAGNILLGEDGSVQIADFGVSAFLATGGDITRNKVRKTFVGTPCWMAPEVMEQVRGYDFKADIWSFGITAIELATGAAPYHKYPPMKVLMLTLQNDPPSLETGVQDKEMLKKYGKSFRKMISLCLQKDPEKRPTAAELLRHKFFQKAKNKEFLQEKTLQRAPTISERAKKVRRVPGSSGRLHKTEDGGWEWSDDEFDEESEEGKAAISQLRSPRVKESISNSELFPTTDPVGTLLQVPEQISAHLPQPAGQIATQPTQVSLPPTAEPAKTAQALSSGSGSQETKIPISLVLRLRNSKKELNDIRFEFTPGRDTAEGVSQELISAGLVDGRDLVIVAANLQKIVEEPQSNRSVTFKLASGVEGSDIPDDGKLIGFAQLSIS
Chain of ima3_human KPNA4 (O00629 whole entry): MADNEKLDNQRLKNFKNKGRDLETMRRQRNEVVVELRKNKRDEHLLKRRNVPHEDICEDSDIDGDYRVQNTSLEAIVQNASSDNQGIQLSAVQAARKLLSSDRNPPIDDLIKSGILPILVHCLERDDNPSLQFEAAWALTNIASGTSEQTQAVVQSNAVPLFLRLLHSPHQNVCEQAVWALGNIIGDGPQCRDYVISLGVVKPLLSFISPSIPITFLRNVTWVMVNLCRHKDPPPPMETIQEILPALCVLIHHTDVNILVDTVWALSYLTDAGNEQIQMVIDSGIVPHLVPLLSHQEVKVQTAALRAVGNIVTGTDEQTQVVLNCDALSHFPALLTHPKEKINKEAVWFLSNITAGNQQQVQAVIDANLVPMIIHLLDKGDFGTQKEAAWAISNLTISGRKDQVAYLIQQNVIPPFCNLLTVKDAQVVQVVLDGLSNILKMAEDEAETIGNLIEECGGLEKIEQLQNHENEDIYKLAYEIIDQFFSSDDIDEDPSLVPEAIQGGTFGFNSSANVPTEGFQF
Chain of G3BP2 (Q9UN86 whole entry): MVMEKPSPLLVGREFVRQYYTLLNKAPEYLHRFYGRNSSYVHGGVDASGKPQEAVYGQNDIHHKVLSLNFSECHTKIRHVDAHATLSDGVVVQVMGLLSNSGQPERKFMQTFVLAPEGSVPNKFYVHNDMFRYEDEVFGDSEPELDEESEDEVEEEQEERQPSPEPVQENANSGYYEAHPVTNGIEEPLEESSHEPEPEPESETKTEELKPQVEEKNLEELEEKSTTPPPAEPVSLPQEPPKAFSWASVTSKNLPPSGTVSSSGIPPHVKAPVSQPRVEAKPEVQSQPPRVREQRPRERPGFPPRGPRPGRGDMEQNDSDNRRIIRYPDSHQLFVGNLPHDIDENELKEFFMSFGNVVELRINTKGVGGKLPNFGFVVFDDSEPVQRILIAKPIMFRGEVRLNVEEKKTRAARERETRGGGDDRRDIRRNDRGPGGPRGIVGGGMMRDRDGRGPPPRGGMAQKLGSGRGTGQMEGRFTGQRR
Chain of ADP-ribosylation factor-like protein 13B (Homo sapiens), Q3SXY8 N255K (Q3SXY8 whole entry N255K): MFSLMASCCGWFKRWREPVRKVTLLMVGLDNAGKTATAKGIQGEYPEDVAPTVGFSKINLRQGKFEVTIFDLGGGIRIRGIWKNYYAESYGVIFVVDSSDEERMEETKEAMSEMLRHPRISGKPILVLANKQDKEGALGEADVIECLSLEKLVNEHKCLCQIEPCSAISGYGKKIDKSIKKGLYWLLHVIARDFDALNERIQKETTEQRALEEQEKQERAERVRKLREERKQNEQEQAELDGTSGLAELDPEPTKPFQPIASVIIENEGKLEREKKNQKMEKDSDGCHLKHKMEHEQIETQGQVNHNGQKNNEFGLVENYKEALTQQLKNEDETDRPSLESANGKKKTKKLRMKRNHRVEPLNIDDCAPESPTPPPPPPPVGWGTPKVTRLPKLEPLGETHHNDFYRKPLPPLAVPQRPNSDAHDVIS
Chain of terf1_human TERF1 (P54274 whole entry): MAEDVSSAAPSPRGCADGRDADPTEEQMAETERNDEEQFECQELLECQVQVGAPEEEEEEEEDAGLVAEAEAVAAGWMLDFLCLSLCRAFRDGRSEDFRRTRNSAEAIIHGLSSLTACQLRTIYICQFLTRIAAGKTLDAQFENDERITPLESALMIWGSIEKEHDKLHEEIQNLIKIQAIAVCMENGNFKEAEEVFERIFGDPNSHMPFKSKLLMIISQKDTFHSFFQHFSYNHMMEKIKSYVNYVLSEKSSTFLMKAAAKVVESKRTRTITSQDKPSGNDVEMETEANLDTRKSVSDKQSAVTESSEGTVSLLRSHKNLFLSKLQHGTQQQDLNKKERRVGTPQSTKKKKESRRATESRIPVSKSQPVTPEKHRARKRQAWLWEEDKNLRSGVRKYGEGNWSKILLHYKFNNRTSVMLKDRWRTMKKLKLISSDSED
Chain of Endothelial PAS domain-containing protein 1 (Homo sapiens), Q99814 F540L (Q99814 whole entry F540L, the tested form may be a part): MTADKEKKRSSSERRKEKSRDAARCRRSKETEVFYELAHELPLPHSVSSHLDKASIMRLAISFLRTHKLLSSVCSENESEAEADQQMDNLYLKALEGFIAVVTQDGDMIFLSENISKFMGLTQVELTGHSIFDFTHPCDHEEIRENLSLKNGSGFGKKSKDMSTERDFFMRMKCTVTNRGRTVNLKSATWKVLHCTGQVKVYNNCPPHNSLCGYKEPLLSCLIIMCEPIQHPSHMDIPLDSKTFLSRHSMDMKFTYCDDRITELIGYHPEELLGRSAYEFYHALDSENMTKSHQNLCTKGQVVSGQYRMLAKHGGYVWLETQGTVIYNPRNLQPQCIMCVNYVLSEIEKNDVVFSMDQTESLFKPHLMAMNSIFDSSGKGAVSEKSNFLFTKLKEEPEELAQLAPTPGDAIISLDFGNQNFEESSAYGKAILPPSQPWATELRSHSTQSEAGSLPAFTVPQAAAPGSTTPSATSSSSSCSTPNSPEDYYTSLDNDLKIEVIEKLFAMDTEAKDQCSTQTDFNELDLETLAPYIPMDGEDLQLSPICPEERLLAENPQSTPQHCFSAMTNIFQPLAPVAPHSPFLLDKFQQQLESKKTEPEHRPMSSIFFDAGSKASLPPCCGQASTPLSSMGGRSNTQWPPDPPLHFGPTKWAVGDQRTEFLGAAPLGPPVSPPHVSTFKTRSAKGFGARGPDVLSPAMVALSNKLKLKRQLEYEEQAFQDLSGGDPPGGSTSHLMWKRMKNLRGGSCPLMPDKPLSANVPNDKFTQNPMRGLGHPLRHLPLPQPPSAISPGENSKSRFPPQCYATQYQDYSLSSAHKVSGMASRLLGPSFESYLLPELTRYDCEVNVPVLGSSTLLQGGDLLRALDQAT

With “Voltage-dependent T-type calcium channel subunit alpha-1H (Homo sapiens), O95180 P684R” the “effect of a mutation on the interaction” value [1] was “decreasing interaction strength”.

“Voltage-dependent T-type calcium channel subunit alpha-1H (Homo sapiens), O95180 P684H” was tested, and the “effect of a mutation on the interaction” value [1] was “decreasing interaction strength”.

In the case of “CREB-binding protein (Homo sapiens), Q92793 K13E”, the “effect of a mutation on the interaction” value [2] is reported as “causing an interaction” and the “effect of a mutation on the interaction” value [3] is reported as “disrupting interaction strength”.

For Titin (Homo sapiens), Q8WZ42 I34306T, the “effect of a mutation on the interaction” value [4] was “decreasing interaction strength”.

With Titin (Homo sapiens), Q8WZ42 I34306S the “effect of a mutation on the interaction” value [4] was “decreasing interaction strength”.

For “Histone-lysine N-methyltransferase, H3 lysine-36 specific (Homo sapiens), Q96L73 L1797P”, the “effect of a mutation on the interaction” value [5] was “decreasing interaction strength”.

Titin (Homo sapiens), Q8WZ42 I34306N was tested, and the “effect of a mutation on the interaction” value [4] was “decreasing interaction strength”.

“Endothelial PAS domain-containing protein 1 (Homo sapiens), Q99814 F540L” was tested, and the “effect of a mutation on the interaction” value [6] was “decreasing interaction strength”.

For “ADP-ribosylation factor-like protein 13B (Homo sapiens), Q3SXY8 N255K”, the “effect of a mutation on the interaction” value [7] was “decreasing interaction strength”.
